Sequences and labels used below:
B1: His-PspA(68–222) (HD2–HD3–HD4) (domain or fragment)
chain: not shown
B2: His-PspA(68–186) (HD2–HD3) (domain or fragment)
chain: not shown
B3: His-PspA(68–110) (HD2) (domain or fragment)
chain: not shown
notes: PspA, E. coli, residues 68-110 (HD2); Cloned NdeI-BamHI into pET28b+, which should give an N-terminal His tag as for the other fragments (surmised); a start codon was added by the forward primer; source: pET28b+-based plasmid pGJ52
B4: His-PspA(1–110) (HD1–HD2) (domain or fragment)
chain: not shown

A word on the stoichiometry N: it is a count of units in the complex or per binding partner.

The data set deals with the molecule itself. Nature of the data set: SEC; single proteins alone: 50-μl samples of 30 μM PspAFL or PspA fragments (20 μM PspF1–275), Superose 6, 4 °C, 20 mM Tris–HCl pH 8.0, 50 mM NaCl, 15 mM MgCl2; apparent oligomeric forms from calibration with globular proteins. For orientation: SEC sorts molecules by how far they enter the pores of the column.
As for B1, the “stoichiometry N” value is 6 subunits.

As for B2, the “stoichiometry N” value came out at 6 subunits.

Take B3: the “stoichiometry N” value worked out at 2 subunits.

B4: the “stoichiometry N” value turned out to be 2 subunits.
